Measured values taken from patent publication US8993255B2, “Protein having fructosyl valyl histidine oxidase activity, modified protein, and use of the protein or the modified protein” (Toyo Boseki Kabushiki Kaisha, priority 2008, dated 2015).

Key:
[1] = tested on: CC(C)[C@H](NCC1(O)OC[C@@H](O)[C@@H](O)[C@@H]1O)C(=O)N[C@@H](Cc1c[nH]cn1)C(=O)O; assay: purified protein, by the assay type; details: other: IE353, F-VH 0.18-1.75 mM, 37° C., MES pH 6.5, peroxidase-coupled, Lineweaver-Burk plot
Procedure: The reaction was conducted at 37° C. for 5 minutes, and then a change in the absorbance at 500 nm (ΔODtest/min) was measured. Meanwhile, a blank test was conducted by adding, instead of the enzyme solution, 0.1 ml of enzyme diluent to the activity measuring reagent, and then measuring a change in the absorbance at 500 nm (ΔODblank/min) in the same way. The enzyme activity was calculated from the changes in absorbance on the basis of the following formula, and is described by unit (U) where an amount of enzyme that oxidizes 1 micromole of substrate in one minute under the above-described condition is 1 unit (U). —Formula— Activity value(U/ml)={ΔOD/min(ΔODtest−ΔODblank)×3.1(ml)×dilution magnification}/{13×1.0(cm)×0.1(ml)}. In the above formula, • “3.1 (ml)” is the whole liquid quantity; • “13” is a millimolar absorbance index; • “1.0 (cm)” is an optical length of a cell; and • “0.1 (ml)” is the enzyme sample quantity. […]

[2] = substrate: CC(C)[C@H](NCC1(O)OC[C@@H](O)[C@@H](O)[C@@H]1O)C(=O)N[C@@H](Cc1c[nH]cn1)C(=O)O; assay: Km value to F-VH (Lineweaver-Burk plot); assay type: biochemical, E. terrenum; details: other: FPOX-EE, F-VH 0.18-1.75 mM, 37° C., MES pH 6.5, peroxidase-coupled
Procedure: (§1) The chemical compounds used in the present examples were purchased from NACALAI TESQUE, INC. unless otherwise particularly stated.
(§2) The following describes an activity measurement method of the following examples 1 through 3.
(§3) An enzyme activity to a substrate was measured by an increase in absorbance of a pigment as a result of peroxidase reaction involving hydrogen peroxide generated by enzyme reaction. First, 3 ml of activity measuring reagent was heated at 37° C. for 5 minutes, and then 0.1 ml of enzyme solution diluted in advance by an enzyme diluent (a 50 mM potassium phosphate buffer (pH 7.5)) was added to the activity measuring reagent, thereby starting the reaction.
(§4) The reaction was conducted at 37° C. for 5 minutes, and then a change in the absorbance at 500 nm (ΔODtest/min) was measured. Meanwhile, a blank test was conducted by adding, instead of the enzyme solution, 0.1 ml of enzyme diluent to the activity measuring reagent, and then measuring a change in the absorbance at 500 nm (ΔODblank/min) in the same way. […] In the above formula, • “3.1 (ml)” is the whole liquid quantity; • “13” is a millimolar absorbance index; • “1.0 (cm)” is an optical length of a cell; and • “0.1 (ml)” is the enzyme sample quantity.
(§5) The Km value to F-VH was worked out as follows. […] Subsequently, activities in the samples were measured by the above-described activity measurement method. […]

[3] = substrate: CC(C)[C@H](NCC1(O)OC[C@@H](O)[C@@H](O)[C@@H]1O)C(=O)N[C@@H](Cc1c[nH]cn1)C(=O)O; assay: Km value to F-VH (Lineweaver-Burk plot); assay type: biochemical, Coniochaeta sp.; details: other: FPOX-CE, F-VH 0.18-1.75 mM, 37° C., MES pH 6.5, peroxidase-coupled
Procedure: as §1, §2, §3, §4, §5

With “Phaeosphaeria nodorum fructosyl valyl histidine oxidase IE353, wild type, SEQ ID NO: 1 (Parastagonospora nodorum SN15)” the Km [1] was 500 µM.

B1: FPOX-EE (E. terrenum), conventional enzyme manufactured by KIKKOMAM Corporation (Penicillium terrenum) (protein)
chain: MAHSRASTKVVVVGGGGTIGSSTALHLIRSGYTPSNITVLDVYKTPSLQSAGHDLNKIMGIRLRNGPDLQLSLESLDMWQNDELFKPFFHQVGMIDCSSSKEGIENLRRKYQTLLDAGIGLEKTNVWLESEDEILAKAPNFTREQVKGWKGLFCTDGGWLAAAKAINAIGIFLQDKGVKFGFGGAGTFQQPLFAADGKTCIGLETTDGTKYFADKVVLAAGAWSPTLVDLEDQCVSKAWVFAHIQLTPKEADAYKNVPVVYDGEYGFFFEPNEYGVIKVCDEFPGFSRFKLHQPYGAASPKMISVPRSHAKHPTDTYPDASEVTIRKAIARFLPEFKDKELFNRTMCWCTDTADANLLICEHPKWKNFILATGDSGHSFKLLPNIGKHVVELLEGSLSQEMAGAWRWRPGGDALRSRRGAPAKDLAEMPGWKHDAHL
Work on B1 yielded a Km [2] of 1000 µM.

B2: FPOX-CE (Coniochaeta sp.), conventional enzyme manufactured by KIKKOMAM Corporation (Coniochaeta sp. NISL 9330) (protein)
chain: MTSNRADTRVIVVGGGGTIGSSTALHLVRSGYAPANITVLDTFEIPSAQSAGHDLNKIMGIRLRNKVDLQMSLEARQMWKEDELFQPFFHNTGRMDCEHTPEGIEDLKKQYQALHDAGAGLEKTHAWLDNEDEILSKMPLLQRDQIQGWKAIWSQDGGWLAAAKAINAIGQFLKERGVKFGFGGAGSFKQPLFDDEGTTCIGVETADGTKYYADKVVLAAGAWSPTLVDLEDQCCSKAWVYAHIQLTPEEAAEYKGVPVVYNGEFGFFFEPNEFGVIKVCDEFPGFSRFKEHQPYGAPSPKHISVPRSHAKHPTDTYPDASEVSIKKAIATFLPRFQDKELFNRALCWCTDTADAALLMCEHPKWKNFILATGDSGHSFKILPNVGKHVVELIEGRLPEEMAYQWRWRPGGDALKSRRAAPPKDLADMPGWKHDPKL
Work on B2 yielded a Km [3] of 1000 µM.
